Assay results taken from publication PMC5384220, “Highly selective inhibition of histone demethylases by de novo macrocyclic peptides” (Nature Communications, 2017).

T1: KDM2A (human, UniProt Q9Y2K7 1-1162)
T1 sequence (looked up): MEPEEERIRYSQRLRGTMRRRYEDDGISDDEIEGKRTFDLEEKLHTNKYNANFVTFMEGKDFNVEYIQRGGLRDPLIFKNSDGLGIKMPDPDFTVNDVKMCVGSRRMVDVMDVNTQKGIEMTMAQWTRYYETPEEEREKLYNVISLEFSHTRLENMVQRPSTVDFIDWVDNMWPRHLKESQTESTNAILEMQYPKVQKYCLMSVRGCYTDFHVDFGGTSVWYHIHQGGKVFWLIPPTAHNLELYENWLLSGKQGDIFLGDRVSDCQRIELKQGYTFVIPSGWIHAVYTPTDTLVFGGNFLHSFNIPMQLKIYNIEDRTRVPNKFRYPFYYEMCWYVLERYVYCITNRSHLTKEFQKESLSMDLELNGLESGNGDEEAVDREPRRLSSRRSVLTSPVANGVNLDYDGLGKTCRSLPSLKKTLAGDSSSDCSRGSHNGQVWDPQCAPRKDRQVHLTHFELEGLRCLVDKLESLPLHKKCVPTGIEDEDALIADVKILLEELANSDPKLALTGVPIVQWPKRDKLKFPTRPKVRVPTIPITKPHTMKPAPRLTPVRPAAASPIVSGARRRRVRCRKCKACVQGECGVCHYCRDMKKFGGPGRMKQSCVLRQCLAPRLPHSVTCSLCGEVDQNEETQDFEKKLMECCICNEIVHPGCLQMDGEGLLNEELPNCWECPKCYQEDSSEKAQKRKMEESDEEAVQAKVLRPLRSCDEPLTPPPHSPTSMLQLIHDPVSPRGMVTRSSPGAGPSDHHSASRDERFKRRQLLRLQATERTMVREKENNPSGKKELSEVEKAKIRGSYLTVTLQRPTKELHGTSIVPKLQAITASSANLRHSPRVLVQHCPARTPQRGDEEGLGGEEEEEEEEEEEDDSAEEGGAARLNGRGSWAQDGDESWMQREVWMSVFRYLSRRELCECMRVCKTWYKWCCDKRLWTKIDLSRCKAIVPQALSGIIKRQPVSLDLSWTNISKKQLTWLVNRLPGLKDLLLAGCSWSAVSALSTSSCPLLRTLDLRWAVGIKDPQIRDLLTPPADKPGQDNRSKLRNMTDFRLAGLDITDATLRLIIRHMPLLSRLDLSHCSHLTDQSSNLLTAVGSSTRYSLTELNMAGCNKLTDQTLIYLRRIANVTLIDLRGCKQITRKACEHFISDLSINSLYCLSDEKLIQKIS

T2: KDM3A (human, UniProt Q9Y4C1 1-1321)
T2 sequence (looked up): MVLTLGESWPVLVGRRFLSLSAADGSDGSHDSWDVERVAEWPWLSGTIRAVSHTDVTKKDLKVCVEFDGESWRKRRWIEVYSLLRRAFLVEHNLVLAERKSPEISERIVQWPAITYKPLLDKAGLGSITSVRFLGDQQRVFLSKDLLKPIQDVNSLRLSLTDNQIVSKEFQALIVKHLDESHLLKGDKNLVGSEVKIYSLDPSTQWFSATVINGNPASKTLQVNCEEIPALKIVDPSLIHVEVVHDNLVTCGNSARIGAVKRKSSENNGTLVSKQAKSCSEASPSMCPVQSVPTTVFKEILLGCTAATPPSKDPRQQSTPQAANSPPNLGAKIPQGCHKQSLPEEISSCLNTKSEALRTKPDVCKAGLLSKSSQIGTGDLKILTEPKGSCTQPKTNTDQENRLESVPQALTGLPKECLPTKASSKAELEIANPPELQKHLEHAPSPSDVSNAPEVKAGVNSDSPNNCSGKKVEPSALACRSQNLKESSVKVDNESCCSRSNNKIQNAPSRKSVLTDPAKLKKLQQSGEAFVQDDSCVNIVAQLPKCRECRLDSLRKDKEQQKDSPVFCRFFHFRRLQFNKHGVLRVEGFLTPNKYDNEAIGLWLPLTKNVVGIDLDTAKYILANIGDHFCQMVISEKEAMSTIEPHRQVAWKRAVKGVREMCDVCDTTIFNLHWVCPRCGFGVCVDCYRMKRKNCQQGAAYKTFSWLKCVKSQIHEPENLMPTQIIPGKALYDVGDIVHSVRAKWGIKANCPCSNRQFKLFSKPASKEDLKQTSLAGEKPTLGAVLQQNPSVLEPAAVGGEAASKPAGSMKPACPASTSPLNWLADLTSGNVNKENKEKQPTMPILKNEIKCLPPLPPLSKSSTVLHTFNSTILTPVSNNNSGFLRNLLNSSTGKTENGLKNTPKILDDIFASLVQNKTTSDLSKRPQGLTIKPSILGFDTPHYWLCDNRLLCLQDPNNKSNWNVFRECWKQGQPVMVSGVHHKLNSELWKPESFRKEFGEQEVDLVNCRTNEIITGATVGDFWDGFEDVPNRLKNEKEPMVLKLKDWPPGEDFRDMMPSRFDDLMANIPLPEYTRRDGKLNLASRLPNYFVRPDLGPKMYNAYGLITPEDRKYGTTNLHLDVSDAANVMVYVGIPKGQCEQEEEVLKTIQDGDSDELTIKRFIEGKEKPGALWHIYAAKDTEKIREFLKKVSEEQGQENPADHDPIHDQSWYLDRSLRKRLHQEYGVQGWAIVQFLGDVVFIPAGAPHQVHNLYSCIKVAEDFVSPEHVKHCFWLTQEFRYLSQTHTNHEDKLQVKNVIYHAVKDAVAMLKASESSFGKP

T3: KDM4D (human, UniProt Q6B0I6 1-523)
T3 sequence (looked up): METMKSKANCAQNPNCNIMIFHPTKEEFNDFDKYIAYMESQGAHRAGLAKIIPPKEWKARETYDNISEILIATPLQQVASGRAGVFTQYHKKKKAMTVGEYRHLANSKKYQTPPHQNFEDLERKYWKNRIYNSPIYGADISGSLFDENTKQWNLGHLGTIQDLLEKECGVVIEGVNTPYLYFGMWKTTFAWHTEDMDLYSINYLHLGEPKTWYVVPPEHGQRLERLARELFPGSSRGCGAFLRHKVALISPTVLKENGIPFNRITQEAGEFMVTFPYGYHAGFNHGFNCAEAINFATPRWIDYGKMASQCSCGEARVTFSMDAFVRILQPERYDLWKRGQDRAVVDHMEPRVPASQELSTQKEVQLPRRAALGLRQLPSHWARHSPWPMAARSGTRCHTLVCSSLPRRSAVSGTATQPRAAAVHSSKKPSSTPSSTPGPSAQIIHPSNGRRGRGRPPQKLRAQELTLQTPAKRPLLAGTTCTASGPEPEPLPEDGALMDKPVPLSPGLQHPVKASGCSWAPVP

T4: His-KDM4A_(1–359)-Bio (human, UniProt O75164 1-359, biotin on the AviTag (>95% biotinylation))
T4 construct: KDM4A, residues 1-359, cloned into pNIC-Bio3; also called His-KDM4A-Bio; His-KDM4A with biotin; not shown: AviTag, C-terminal, kept
T4 sequence (looked up): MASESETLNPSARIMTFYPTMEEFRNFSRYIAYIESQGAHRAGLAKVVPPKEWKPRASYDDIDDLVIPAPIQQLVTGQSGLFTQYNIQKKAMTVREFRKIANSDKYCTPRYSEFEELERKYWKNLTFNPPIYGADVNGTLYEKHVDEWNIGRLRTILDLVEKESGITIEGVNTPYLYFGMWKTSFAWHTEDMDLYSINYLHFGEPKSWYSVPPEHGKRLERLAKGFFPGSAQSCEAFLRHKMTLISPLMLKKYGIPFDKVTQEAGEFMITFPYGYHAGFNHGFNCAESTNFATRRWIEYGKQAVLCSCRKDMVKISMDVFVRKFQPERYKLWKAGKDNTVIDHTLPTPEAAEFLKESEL

B1: CP5 (peptide)
chain: YSKYTQSGVRWVC
modifications: not fully specified; N-terminal L-Tyr (^LTyr library, N-chloroacetyl-L-Tyr) cyclised by a thioether to a downstream cysteine
B2: H3(1–15)K9me3 (peptide, UniProt P68431 2-16, looked up)
peptide: ARTKQTARKSTGGKA
modifications: trimethyl-lysine at 9
notes: histone H3, residues 1-15, Lys9 trimethylated; The H3K9me3 substrate of the formaldehyde dehydrogenase coupled assay is not described further; this molecule is used for it; also called histone H3K9 peptide; H3K9me3

Key:
KDM1A = KDM1A (human, UniProt O60341 1-852); experiment: cell-based or functional assay
KDM2A = target: T1, KDM2A; experiment: cell-based or functional assay
KDM3A = target: T2, KDM3A; experiment: cell-based or functional assay
KDM5C = KDM5C (human, UniProt P41229 1-1560); experiment: cell-based or functional assay
KDM6B = KDM6B (human, UniProt O15054 1-1643); experiment: cell-based or functional assay
[1] = target: prolyl hydroxylase domain 2 (UniProt Q9GZT9 1-426); experiment: cell-based or functional assay
factor inhibiting HIF = factor inhibiting HIF (UniProt Q9NWT6 1-349); experiment: cell-based or functional assay
KDM4D = target: T3, KDM4D; experiment: cell-based or functional assay
His-KDM4A_(1–359)-Bio = target: T4, His-KDM4A_(1–359)-Bio; experiment: BLI; His-KDM4A(1–359)-Bio (70 nM) immobilised on super streptavidin biosensor, peptides at different concentrations in solution; OctetRed 384; 50 mM HEPES pH 7.5, 150 mM NaCl, 10 μM ammonium iron(II) sulphate; details: both partners purified

KDM5C, sequence (P41229 whole entry): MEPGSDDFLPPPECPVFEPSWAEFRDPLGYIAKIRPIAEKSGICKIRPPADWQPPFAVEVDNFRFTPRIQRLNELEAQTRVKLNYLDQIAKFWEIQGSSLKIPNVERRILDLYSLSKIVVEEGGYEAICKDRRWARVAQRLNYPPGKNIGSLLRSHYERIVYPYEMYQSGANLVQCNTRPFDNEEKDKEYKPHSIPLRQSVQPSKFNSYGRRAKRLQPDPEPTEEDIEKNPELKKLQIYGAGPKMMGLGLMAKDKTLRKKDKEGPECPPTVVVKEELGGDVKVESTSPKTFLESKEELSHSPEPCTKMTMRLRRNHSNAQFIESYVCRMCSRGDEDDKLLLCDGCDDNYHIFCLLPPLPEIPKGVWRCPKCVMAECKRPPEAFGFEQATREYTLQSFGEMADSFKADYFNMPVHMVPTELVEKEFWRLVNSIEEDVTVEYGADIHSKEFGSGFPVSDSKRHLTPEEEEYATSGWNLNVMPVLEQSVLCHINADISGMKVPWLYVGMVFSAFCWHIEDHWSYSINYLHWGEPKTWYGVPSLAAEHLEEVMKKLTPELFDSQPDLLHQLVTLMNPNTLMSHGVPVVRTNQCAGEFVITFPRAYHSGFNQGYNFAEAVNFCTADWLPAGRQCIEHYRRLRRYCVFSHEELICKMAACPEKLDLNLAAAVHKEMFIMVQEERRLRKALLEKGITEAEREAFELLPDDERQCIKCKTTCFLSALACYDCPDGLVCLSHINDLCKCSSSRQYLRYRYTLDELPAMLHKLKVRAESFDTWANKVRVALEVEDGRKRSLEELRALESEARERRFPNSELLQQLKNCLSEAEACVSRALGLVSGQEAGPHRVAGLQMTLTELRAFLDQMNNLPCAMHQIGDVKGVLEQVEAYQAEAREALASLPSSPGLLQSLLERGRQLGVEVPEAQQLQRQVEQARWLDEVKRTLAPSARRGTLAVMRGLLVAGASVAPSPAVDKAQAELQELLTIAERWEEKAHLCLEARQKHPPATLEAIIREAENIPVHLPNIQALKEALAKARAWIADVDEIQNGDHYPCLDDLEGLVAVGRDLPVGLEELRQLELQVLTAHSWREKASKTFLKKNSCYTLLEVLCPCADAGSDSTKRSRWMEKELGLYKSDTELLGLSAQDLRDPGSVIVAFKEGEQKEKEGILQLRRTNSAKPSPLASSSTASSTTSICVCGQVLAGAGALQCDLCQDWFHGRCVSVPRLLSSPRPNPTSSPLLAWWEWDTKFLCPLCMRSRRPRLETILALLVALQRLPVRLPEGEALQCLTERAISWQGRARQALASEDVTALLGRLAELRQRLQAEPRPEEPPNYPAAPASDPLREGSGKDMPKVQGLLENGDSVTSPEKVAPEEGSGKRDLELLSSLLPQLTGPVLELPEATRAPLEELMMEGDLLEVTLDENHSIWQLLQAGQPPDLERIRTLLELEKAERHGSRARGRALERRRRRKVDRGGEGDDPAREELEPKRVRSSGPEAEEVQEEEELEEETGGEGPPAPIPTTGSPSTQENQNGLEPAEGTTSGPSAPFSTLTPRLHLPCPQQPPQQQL
prolyl hydroxylase domain 2, sequence (Q9GZT9 whole entry, the tested form may be a part): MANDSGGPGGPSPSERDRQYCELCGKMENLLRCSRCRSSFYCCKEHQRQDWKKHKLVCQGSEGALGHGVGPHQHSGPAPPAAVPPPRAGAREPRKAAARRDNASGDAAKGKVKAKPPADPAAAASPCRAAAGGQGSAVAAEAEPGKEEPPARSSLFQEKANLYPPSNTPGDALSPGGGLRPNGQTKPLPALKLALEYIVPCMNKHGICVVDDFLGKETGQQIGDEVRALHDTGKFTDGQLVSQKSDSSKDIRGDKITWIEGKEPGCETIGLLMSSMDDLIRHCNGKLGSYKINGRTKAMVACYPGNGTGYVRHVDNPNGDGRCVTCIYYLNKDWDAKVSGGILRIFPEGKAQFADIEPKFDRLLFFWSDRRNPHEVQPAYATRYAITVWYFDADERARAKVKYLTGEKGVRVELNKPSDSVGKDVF
factor inhibiting HIF, sequence (Q9NWT6 whole entry): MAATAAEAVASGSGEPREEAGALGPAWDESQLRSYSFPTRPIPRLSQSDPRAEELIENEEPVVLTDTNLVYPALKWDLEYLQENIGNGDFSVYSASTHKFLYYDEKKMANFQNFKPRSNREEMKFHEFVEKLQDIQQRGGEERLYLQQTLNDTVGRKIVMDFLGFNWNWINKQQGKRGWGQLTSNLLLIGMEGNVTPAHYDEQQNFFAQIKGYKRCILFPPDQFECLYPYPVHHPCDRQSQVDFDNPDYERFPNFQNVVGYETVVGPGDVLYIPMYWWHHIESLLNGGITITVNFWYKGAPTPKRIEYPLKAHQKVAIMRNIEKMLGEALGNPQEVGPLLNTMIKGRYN
KDM6B, sequence (O15054 whole entry, the tested form may be a part): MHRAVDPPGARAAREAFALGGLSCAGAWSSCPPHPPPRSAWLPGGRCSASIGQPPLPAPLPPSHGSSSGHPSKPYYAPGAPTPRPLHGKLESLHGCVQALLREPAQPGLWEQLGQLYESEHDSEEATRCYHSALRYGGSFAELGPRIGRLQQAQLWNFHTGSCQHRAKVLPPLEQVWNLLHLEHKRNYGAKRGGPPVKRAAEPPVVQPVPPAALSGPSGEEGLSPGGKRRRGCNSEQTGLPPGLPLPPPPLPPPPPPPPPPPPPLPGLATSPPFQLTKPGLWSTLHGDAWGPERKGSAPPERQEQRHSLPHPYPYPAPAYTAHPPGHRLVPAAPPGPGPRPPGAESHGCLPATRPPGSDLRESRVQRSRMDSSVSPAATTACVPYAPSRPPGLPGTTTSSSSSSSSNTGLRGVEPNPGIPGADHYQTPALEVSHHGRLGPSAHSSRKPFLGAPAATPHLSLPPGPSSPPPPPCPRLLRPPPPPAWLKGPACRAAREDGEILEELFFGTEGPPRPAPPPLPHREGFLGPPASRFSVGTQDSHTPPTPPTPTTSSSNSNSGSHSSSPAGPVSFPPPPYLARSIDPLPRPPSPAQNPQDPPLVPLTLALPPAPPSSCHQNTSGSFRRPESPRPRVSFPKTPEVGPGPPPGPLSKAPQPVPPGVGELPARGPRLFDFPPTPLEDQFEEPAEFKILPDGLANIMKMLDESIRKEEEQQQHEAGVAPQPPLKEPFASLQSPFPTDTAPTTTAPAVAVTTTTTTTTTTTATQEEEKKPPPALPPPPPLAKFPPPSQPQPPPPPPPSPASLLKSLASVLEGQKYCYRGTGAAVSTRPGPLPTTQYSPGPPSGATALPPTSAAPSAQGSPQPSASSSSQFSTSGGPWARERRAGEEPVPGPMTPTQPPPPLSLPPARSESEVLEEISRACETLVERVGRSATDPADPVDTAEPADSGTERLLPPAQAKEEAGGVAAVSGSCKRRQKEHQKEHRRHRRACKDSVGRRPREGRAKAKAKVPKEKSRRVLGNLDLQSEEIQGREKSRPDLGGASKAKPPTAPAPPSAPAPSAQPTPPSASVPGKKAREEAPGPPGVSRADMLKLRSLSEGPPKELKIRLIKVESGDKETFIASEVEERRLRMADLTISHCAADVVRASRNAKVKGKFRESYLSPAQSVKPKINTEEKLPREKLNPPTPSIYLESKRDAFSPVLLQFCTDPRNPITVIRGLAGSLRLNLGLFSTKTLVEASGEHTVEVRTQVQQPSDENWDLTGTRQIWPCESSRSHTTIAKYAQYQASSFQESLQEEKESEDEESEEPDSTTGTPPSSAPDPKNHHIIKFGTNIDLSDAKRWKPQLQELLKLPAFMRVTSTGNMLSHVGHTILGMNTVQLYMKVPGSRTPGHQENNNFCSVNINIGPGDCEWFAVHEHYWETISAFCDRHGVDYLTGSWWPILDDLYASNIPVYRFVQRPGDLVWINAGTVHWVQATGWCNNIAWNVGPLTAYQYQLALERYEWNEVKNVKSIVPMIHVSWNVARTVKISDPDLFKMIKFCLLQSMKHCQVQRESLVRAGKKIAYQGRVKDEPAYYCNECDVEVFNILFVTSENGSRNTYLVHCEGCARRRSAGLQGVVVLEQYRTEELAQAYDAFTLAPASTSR

Binder	IC50 of inhibition of KDM1A/LSD1 (fluorescence-based assay) (KDM1A)	IC50 of inhibition of demethylase activity (AlphaScreen activity assay) (KDM2A)	IC50 of inhibition of demethylase activity (AlphaScreen activity assay) (KDM3A)	IC50 of inhibition of demethylase activity (AlphaScreen activity assay) (KDM5C)	IC50 of inhibition of demethylase activity (AlphaScreen activity assay) (KDM6B)	IC50 of inhibition of PHD2 (MALDI–TOF MS assay) [1]	IC50 of inhibition of FIH (MALDI–TOF MS assay) (factor inhibiting HIF)	IC50 of inhibition of demethylase activity (AlphaScreen activity assay) (KDM4D)	fold weaker Kd than the cyclic peptides CP2, CP4 and CP5 (His-KDM4A_(1–359)-Bio)
B1	> 10 µM	> 10 µM	> 10 µM	> 10 µM	> 10 µM	> 1 mM	> 1 mM	> 10 µM	
B2									> 1000 fold
